Source: the nanobody polyreactivity screen of Harvey et al. (2022)

Test: yeast display, Sf9 membrane polyspecificity reagent, FACS + sequencing; frameworks hold sequencing errors
Method in brief: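 In a synthetic yeast display library (Saccharomyces cerevisiae BJ5465), nanobody expression was induced with galactose for 36–48 hours. FACS gates were set low and high (top ~1%) using anti-HA fluorescence for expression and streptavidin fluorescence for binding of the Sf9 membrane reagent. Each polyreactivity label is drawn from the gate of origin.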

Sequence	polyreactivity (PSR sort gate)
QVQLVESGGGLVQAGGSLRLSCSASGSIFYYKAMGWYRQAPGKERELVAAISYRGTSTYYADSVKGRFTISRDNAKNTVSLQMNSLKPEDTAVYYCAAPALYTSRRYYYWGQGNQVTVSS	high polyreactivity
QVQLVESGGGLVQAGGSLRLSCSASGSIYSYYTMGSYIQAPGKERELVAAITGSGGRTYYADSVKGRFTISRDNAKNTVYLQMNSLKQEDTAVYYCNADRHYVPYYSRPRYIPYDYWGQGTQVTVSS	high polyreactivity
QVQLVESGGGLVQAGGSLRLSCSASGSTFFPYAMGWYRQAPGKERELVAAITSGGNTNYADSVKGRFTISRDNAKNTVYLQMNSLKPEDTAVYYCAADYLWHYRKYDYWGQGTQVTVSS	low polyreactivity
QVQLVESGGGLVQAGGSLRLSCSASGSTFPPNAMGWYRQAPGKERELVAVISYSDGSTYYADSVKGRFTISRDNAKNTVYLQMNSLKPEDTAVYYCAAYSGYGGVSMYYWGQGTQVTVSS	low polyreactivity
QVQLVESGGGLVQAGGSLRLSCSASGSTFRGYAMGWYRQAPGKDRELVAAISWSGGSTYYADSVKGRFTISRDHAKNTVYLQMNSLKPVDTAVYYCNAVGYLDFEWGQGTQVTVSS	low polyreactivity
QVQLVESGGGLVQAGGSLRLSCSASGSTFSENAMGWYRQAPGKERELVAAISWGGGSTYYADSVKGRFTISRDKAKNTVYLQMNSLKPEDTSVYYCNADVFDDYCDFESDDWGQGTQVTVSS	low polyreactivity
QVQLVESGGGLVQAGGSLRLSCSASGSTFYVYAMGWYRQAPGKERELVAAITDSGGSTYYADSVKGRFTISRDNAKNTVYLQMNILKPEDTAVYYCAREYTYRYHYYYWGQGTQVTVSS	low polyreactivity
QVQLVESGGGLVQAGGSLRLSCSASGYIFSKYGMGWYRQAPGKEREFVAAISIRGGNTYYADSVKGRFTISRDNAKNTVYLQMTSLKPEDTAVYYCNALSYGRYLNYRGGMDYWGQGTQVTVSS	high polyreactivity
QVQLVESGGGLVQAGGSLRLSCSDSGSTFPYHAMGWYRPAPGKERELVAAIDSSDGITYYADSVKGRFTISRDNAKNTVYLQMNRLKPEDTAVYYCAAEDYEAGYDFWGQGTQVTVSS	high polyreactivity
QVQLVESGGGLVQAGGSLRLSCTASGGIFRYYAMGWYRPAPGKERELVAGISRSGGSTHYADSVKGRFTISRDNAKNTVYLQMNSLKREDTAVYYCAADTYFTKYDYWGQGTQVTVSS	high polyreactivity
QVQLVESGGGLVQAGGSLRLSCVASGLTFYYYAMGWYRQAPGKERELVAAISSGGSTYYADSVKGRFTISRDNAKNTVYLQMNSLKPEDTAVYYCNTYRYRVWGLMYWGQGTQVTLSS	high polyreactivity
QVQLVESGGGLVQAGGSLRLSCVASGRIFWANAIGWYRQAPGKERELVAAITYSGGTTYYADSVKGRFTISRDNAKNTVYLQMNSLKPEATAVYYCAKVGRGNNYWGQGTQVTVSS	high polyreactivity
QVQLVESGGGLVQAGGSLRLSCVASGRTFSRYAMGWYRPAPGKERELVAAISRRGGSTFYADSVKGRFTISRDNAKNTVYLQMNSLKPEDTAVYYCAAGYITWGSGNWVVTPYDYWGQGTQVTVSS	high polyreactivity
QVQLVESGGGLVQAGGSLRLSCYASGFIFHSYAMGWYRQAPGKERELVASISRGGGSTYYADSVKGRFTISRDNAKNTVYLQKNSLKPEDTPVYYCNAVWRSNSRFDYWGQCTQVTVSS	high polyreactivity
QVQLVESGGGLVQAGGSLRLSFAASARTFYIYPMGWYRQAPGKERELVAAITYGGGRTFYADSVKGRFTISRDNANNTVYLQMNSLKPEDTAVYYCAATVRGKRSTYDYWGQGTQVTVSS	high polyreactivity
QVQLVESGGGLVQAGGSLRLSFAASGFIFYRYVMGWYRQAPGKERELVAAITWSGGSTYYADSVKGRFTISRDNAKNTVYLQMNSLKPEDTAVYYCNAESNLYFRYDYWGQGTQVTVSS	low polyreactivity
QVQLVESGGGLVQAGGSLRLSFAASGFNFEWYTMGWYRQAPGKEMELVADISGDGSTYYAVSVKGRFTISRDNAKNTVYLQMNSLKPEDTAVYYCAASFWGIAMGYWGQGTQVTVSS	high polyreactivity
QVQLVESGGGLVQAGGSLRLSFAASGFTFYRYAMGWYRQAPGKERELVAAISGDGGSTYYAASVKGRFTISRDNAKNTVYLQMNSLKPEDTAVYYCNKYFWQYLYGYWGQGTQVTVSS	high polyreactivity
QVQLVESGGGLVQAGGSLRLSFAASGFTLVGYTMGWYRQAPGKERELVAAINWSGGRTYYADSVKGRFTISRDNAKNTVYLQMNSLKPVDTAVYYCAADSLRYKKYYYWGQGTQVTVSS	high polyreactivity
QVQLVESGGGLVQAGGSLRLSFAASGLIGRYAMGWYRQAPGKERELVAVITSGDSTYYADSVKGRFTISRDNAKNTVYLQMNSLKQEDTAVYYCAADSYRRWGNLFTGNEYDSWGQGTQVTVSS	low polyreactivity
QVQLVESGGGLVQAGGSLRLSFAASGLIVTGYAMGWYRQRPGKEREVVAAITSGGGTNYADSVKGRFTISRDNAKNTVDLQMNSLKPEDTAVYYCAVDFGHYYLYSITSYLWYWDGYDYWGQGTQVTVSS	low polyreactivity
QVQLVESGGGLVQAGGSLRLSFAASGNIFSFNDMGWYRQAPGQERELVAAITSSDSTNYADSVKGRFTISRDNAKNTVYLQMNSLKPEDTAVYYCATEILTAARETVVYQFYLGYYYWGQGTQVTVSS	low polyreactivity

Sequence	polyreactivity (PSR sort gate)
QVQLVESGGGLVQAGGSLRLSFAASGRIFDYNVMGWYRQAPGKERELVADITSSGGATYYADSVKGRFTNSRDNAKNTVYLQMNSLKPEDTAVYYCYISYFTFYDDFYYWGQGTQVTVSS	low polyreactivity
QVQLVESGGGLVQAGGSLRLSFAASGRTFLVYAMGWYRQAPGKERELVAGITSGGGTYYADSVKGRFTISRDNAKNTVYLQMNSLKPEDTAVYYCAKYRWYGVYWGQGTQVTVSS	low polyreactivity
QVQLVESGGGLVQAGGSLRLSFAASGRTFPDNAMGWYRQAPGTQRELVATISWSGGSTYYADSVKGRFTISRDNAKNTVYLQMNSLKPEDTAVYYCARDSLQVFYPYASDDYWGQGTQVTVSS	low polyreactivity
QVQLVESGGGLVQAGGSLRLSFAASGRTFSGYAMGWYRQAPGKERELVASISGSGSSTYYADSVKGRFTISRDNAKNTVYLQMNSLKPEHTAVYYCNATRAGENPDGGDEYWGQGTQVTVSS	high polyreactivity
QVQLVESGGGLVQAGGSLRLSFAASGRTFTYNAMGVYRQAPGKERELVAAMTYRGGSTYYADSVKGRFTISRDNAKNTVYLQMNSLKPEDTAVYYCAARVSYYRYNTPHYYYWGQGTQVTVSS	high polyreactivity
QVQLVESGGGLVQAGGSLRLSFAASGRTFYGYAMGWYRQAPGKERELVASIRQSAGRTYYADSVKGRFTISRDISKNTVYLVMNSLKPEDSAVYYCAASIFLRSFYQQGNYWGQGTHVTVSS	high polyreactivity
QVQLVESGGGLVQAGGSLRLSFAASGRTFYINDMGWYRQAPGKERELVAAITWRGGSTYYADSVKGRFTISRDNAMNTVYLQMNSLKPEDTAVYYCAAYISLYWWYDYWGQGTQVTVSS	low polyreactivity
QVQLVESGGGLVQAGGSLRLSFAASGSIFKGNVMGWYRQAPGKERELVAGISRRGTSTYYADSVKGRFTISRDNAKNSVYLQMNSLKPEDSAVYYCAKRYYTYGYDYWGQGTQVTVSS	high polyreactivity
QVQLVESGGGLVQAGGSLRLSFAASGSIFRYYVMGWYRQAPGKERELVAAISSGGRTYYADSVKGRFTISRDNAKNTVYLQMNSLKPEDTAVYYCNAQGLFYWEMDYWGQGTQVTVSS	high polyreactivity
QVQLVESGGGLVQAGGSLRLSFAASGSNFAVKAMGLNTPAPGKERELVATITRRDGSTYYADSVKGRFTISRDNAKYTVYLQLNSLKPEDTAVYYCNARLKRTYDYWGQGTQVTVSS	high polyreactivity
QVQLVESGGGLVQAGGSLRLSFAASGSNFYIYAMGWYRQAPGKERELVAAITSGGNTYYVDSVKGRFTISRDNAKNTVYFQMNSLKPEDTAVYYCAAELYDRWSRMDYWGQGTQVTVSS	low polyreactivity
QVQLVESGGGLVQAGGSLRLSFAASGSTFKFNAMGWYRQAPGKERELVATITSRGSRTYYADSVKGRFTISRDNAKNTVYLQMNSLKPEDTAVYYCAKVSKRVGFPTAMNYWGQGTQVTVSS	high polyreactivity
QVQLVESGGGLVQAGGSLRLSFAASGSTIGDNAMGWYRQAPGKERELVAVITSDTSTYYADSVKGRFTISRDNAMNTVYLQMNSLKPEDTAVYYCAADWGGLWFWYEYWGQGTQVTVSS	low polyreactivity
QVQLVESGGGLVQAGGSLRLSFAASGSTLGQNAMGWYRQARGKERELVAASSSGGRTYYADSVKGRFTISRDNAKNTVYLQMNSLNPEDTAVYYCNAVAYSLSGYNSWGQGTQVTVSS	high polyreactivity
QVQLVESGGGLVQAGGSLRLSFAASGYTFSPYAMGWYRQAPGKERELVAVISSSASTYYADSVKGRFTISRDNAKITVYLQMNSLKPEDTAVYYCAAQPAHPRRYDYWGQGTQVTVSS	high polyreactivity
QVQLVESGGGLVQAGGSLRLSFAASGYTFWYYAMGWYRQAPGKERELVARISKRGGSTYYADSVKGRFTISRDNAKNTVYLQMNSLKPEDTEVYYCAADTRQQSHSMDYWGQGTQVTVSS	low polyreactivity
QVQLVESGGGLVQAGGSLRLSFGASGLNFGWYAMGWYRKAPGKERELVAAITYDGDSTYYADSVKGRFTISRDNAKNTVYFQMNSLKPEDTAFYYCAGEYGYGEMDSWGQGTQVTVTS	high polyreactivity
QVQLVESGGGLVQAGGSLRLSGAASGITIKRYAMGWYRQAPGKEREFVATISQSGTSTYYADSVKGRFTISRDNAQNTVYLQMNSLKPEDTAVYYCAADYIGYWYGYYSWGQGTQVTVSS	low polyreactivity
QVQLVESGGGLVQAGGSLRLSGAASGNIFDNYAMGWYRQAPGKERELVAAITWSGGSTYYADSVKGRFTISRDNAKNTVYLQMNSLKPEDTAVYFCNTDYNHVFAYDHWGQGTQVTVSS	low polyreactivity
QVQLVESGGGLVQAGGSLRLSGAASGRIFAQYAMGWYRPAPAKERELVAAITAGDDTYADSVKGRFTISRDNAKNTVYLQMNSLKPEDTAVYYCAAETWDLTWWGAYDLGEYWGQGTQVTVSS	high polyreactivity
QVQLVESGGGLVQAGGSLRLSGAASGRIFATNAMGWYRQAPGKETELVATITRSAGRTYYADSVKGRFTNSRDNAKNTVYLQMNSLKPEETAVYYCAASYWDTEPGYREYDYWGQGTQVTVSS	low polyreactivity
